In patent US20130316941A1 (Boehringer Ingelheim, published 2013):
Starred links: 1 amine or outer side, 2 acyl side, 3 side chain; linkers in the order of their positions; H or OH if unused. Non-standard residues stand in square brackets, D forms with d. Groups on a side chain read outwards from the residue. *: point of attachment. γGlu = O=C(O)[C@H](CCC(=O)[*:2])N[*:1]; Palmitoyl = CCCCCCCCCCCCCCCC(=O)*

B1: H-HSHGTFTSDYSRYLDE-K(Hexadecanoyl-isoGlu)-RARDFIEWLLSA-NH2 [Compound 10] (peptide)
peptide: HSHGTFTSDYSRYLDEKRARDFIEWLLSA
HELM: PEPTIDE1{H.S.H.G.T.F.T.S.D.Y.S.R.Y.L.D.E.K.R.A.R.D.F.I.E.W.L.L.S.A.[am]}|PEPTIDE2{[CCCCCCCCCCCCCCCC(=O)[*:2]].[gGlu]}$PEPTIDE1,PEPTIDE2,17:R3-2:R2$$$V2.0
SMILES: CCCCCCCCCCCCCCCC(=O)N[C@@H](CCC(=O)NCCCC[C@H](NC(=O)[C@H](CCC(=O)O)NC(=O)[C@H](CC(=O)O)NC(=O)[C@H](CC(C)C)NC(=O)[C@H](Cc1ccc(O)cc1)NC(=O)[C@H](CCCNC(=N)N)NC(=O)[C@H](CO)NC(=O)[C@H](Cc1ccc(O)cc1)NC(=O)[C@H](CC(=O)O)NC(=O)[C@H](CO)NC(=O)[C@@H](NC(=O)[C@H](Cc1ccccc1)NC(=O)[C@@H](NC(=O)CNC(=O)[C@H](Cc1c[nH]cn1)NC(=O)[C@H](CO)NC(=O)[C@@H](N)Cc1c[nH]cn1)[C@@H](C)O)[C@@H](C)O)C(=O)N[C@@H](CCCNC(=N)N)C(=O)N[C@@H](C)C(=O)N[C@@H](CCCNC(=N)N)C(=O)N[C@@H](CC(=O)O)C(=O)N[C@@H](Cc1ccccc1)C(=O)N[C@H](C(=O)N[C@@H](CCC(=O)O)C(=O)N[C@@H](Cc1c[nH]c2ccccc12)C(=O)N[C@@H](CC(C)C)C(=O)N[C@@H](CC(C)C)C(=O)N[C@@H](CO)C(=O)N[C@@H](C)C(N)=O)[C@@H](C)CC)C(=O)O
B2: H-H-DSer-PGTFTSDYSRYLDE-K(Hexadecanoyl-isoGlu)-RARDFIEWLLSA-NH2 [Compound 14] (peptide)
peptide: HXPGTFTSDYSRYLDEKRARDFIEWLLSA
HELM: PEPTIDE1{H.[dS].P.G.T.F.T.S.D.Y.S.R.Y.L.D.E.K.R.A.R.D.F.I.E.W.L.L.S.A.[am]}|PEPTIDE2{[CCCCCCCCCCCCCCCC(=O)[*:2]].[gGlu]}$PEPTIDE1,PEPTIDE2,17:R3-2:R2$$$V2.0
SMILES: CCCCCCCCCCCCCCCC(=O)N[C@@H](CCC(=O)NCCCC[C@H](NC(=O)[C@H](CCC(=O)O)NC(=O)[C@H](CC(=O)O)NC(=O)[C@H](CC(C)C)NC(=O)[C@H](Cc1ccc(O)cc1)NC(=O)[C@H](CCCNC(=N)N)NC(=O)[C@H](CO)NC(=O)[C@H](Cc1ccc(O)cc1)NC(=O)[C@H](CC(=O)O)NC(=O)[C@H](CO)NC(=O)[C@@H](NC(=O)[C@H](Cc1ccccc1)NC(=O)[C@@H](NC(=O)CNC(=O)[C@@H]1CCCN1C(=O)[C@@H](CO)NC(=O)[C@@H](N)Cc1c[nH]cn1)[C@@H](C)O)[C@@H](C)O)C(=O)N[C@@H](CCCNC(=N)N)C(=O)N[C@@H](C)C(=O)N[C@@H](CCCNC(=N)N)C(=O)N[C@@H](CC(=O)O)C(=O)N[C@@H](Cc1ccccc1)C(=O)N[C@H](C(=O)N[C@@H](CCC(=O)O)C(=O)N[C@@H](Cc1c[nH]c2ccccc12)C(=O)N[C@@H](CC(C)C)C(=O)N[C@@H](CC(C)C)C(=O)N[C@@H](CO)C(=O)N[C@@H](C)C(N)=O)[C@@H](C)CC)C(=O)O
B3: H-H-Aib-QGTFTSDYSKYLD-K(Hexadecanoyl-isoGlu)-RRAKDFIEWLLSA-NH2 [Compound 1] (peptide)
peptide: HXQGTFTSDYSKYLDKRRAKDFIEWLLSA
HELM: PEPTIDE1{H.[Aib].Q.G.T.F.T.S.D.Y.S.K.Y.L.D.K.R.R.A.K.D.F.I.E.W.L.L.S.A.[am]}|PEPTIDE2{[CCCCCCCCCCCCCCCC(=O)[*:2]].[gGlu]}$PEPTIDE1,PEPTIDE2,16:R3-2:R2$$$V2.0
SMILES: CCCCCCCCCCCCCCCC(=O)N[C@@H](CCC(=O)NCCCC[C@H](NC(=O)[C@H](CC(=O)O)NC(=O)[C@H](CC(C)C)NC(=O)[C@H](Cc1ccc(O)cc1)NC(=O)[C@H](CCCCN)NC(=O)[C@H](CO)NC(=O)[C@H](Cc1ccc(O)cc1)NC(=O)[C@H](CC(=O)O)NC(=O)[C@H](CO)NC(=O)[C@@H](NC(=O)[C@H](Cc1ccccc1)NC(=O)[C@@H](NC(=O)CNC(=O)[C@H](CCC(N)=O)NC(=O)C(C)(C)NC(=O)[C@@H](N)Cc1c[nH]cn1)[C@@H](C)O)[C@@H](C)O)C(=O)N[C@@H](CCCNC(=N)N)C(=O)N[C@@H](CCCNC(=N)N)C(=O)N[C@@H](C)C(=O)N[C@@H](CCCCN)C(=O)N[C@@H](CC(=O)O)C(=O)N[C@@H](Cc1ccccc1)C(=O)N[C@H](C(=O)N[C@@H](CCC(=O)O)C(=O)N[C@@H](Cc1c[nH]c2ccccc12)C(=O)N[C@@H](CC(C)C)C(=O)N[C@@H](CC(C)C)C(=O)N[C@@H](CO)C(=O)N[C@@H](C)C(N)=O)[C@@H](C)CC)C(=O)O
B4: H-H-Aib-HGTFTSDYSRYLDE-K(Hexadecanoyl-isoGlu)-RARDFIEWLLSA-NH2 [Compound 12] (peptide)
peptide: HXHGTFTSDYSRYLDEKRARDFIEWLLSA
HELM: PEPTIDE1{H.[Aib].H.G.T.F.T.S.D.Y.S.R.Y.L.D.E.K.R.A.R.D.F.I.E.W.L.L.S.A.[am]}|PEPTIDE2{[CCCCCCCCCCCCCCCC(=O)[*:2]].[gGlu]}$PEPTIDE1,PEPTIDE2,17:R3-2:R2$$$V2.0
SMILES: CCCCCCCCCCCCCCCC(=O)N[C@@H](CCC(=O)NCCCC[C@H](NC(=O)[C@H](CCC(=O)O)NC(=O)[C@H](CC(=O)O)NC(=O)[C@H](CC(C)C)NC(=O)[C@H](Cc1ccc(O)cc1)NC(=O)[C@H](CCCNC(=N)N)NC(=O)[C@H](CO)NC(=O)[C@H](Cc1ccc(O)cc1)NC(=O)[C@H](CC(=O)O)NC(=O)[C@H](CO)NC(=O)[C@@H](NC(=O)[C@H](Cc1ccccc1)NC(=O)[C@@H](NC(=O)CNC(=O)[C@H](Cc1c[nH]cn1)NC(=O)C(C)(C)NC(=O)[C@@H](N)Cc1c[nH]cn1)[C@@H](C)O)[C@@H](C)O)C(=O)N[C@@H](CCCNC(=N)N)C(=O)N[C@@H](C)C(=O)N[C@@H](CCCNC(=N)N)C(=O)N[C@@H](CC(=O)O)C(=O)N[C@@H](Cc1ccccc1)C(=O)N[C@H](C(=O)N[C@@H](CCC(=O)O)C(=O)N[C@@H](Cc1c[nH]c2ccccc12)C(=O)N[C@@H](CC(C)C)C(=O)N[C@@H](CC(C)C)C(=O)N[C@@H](CO)C(=O)N[C@@H](C)C(N)=O)[C@@H](C)CC)C(=O)O
B5: H-H-Aib-QGTFTSDYSRYLDE-K(Hexadecanoyl-isoGlu)-RARDFIEWLLSA-NH2 [Compound 9] (peptide)
peptide: HXQGTFTSDYSRYLDEKRARDFIEWLLSA
HELM: PEPTIDE1{H.[Aib].Q.G.T.F.T.S.D.Y.S.R.Y.L.D.E.K.R.A.R.D.F.I.E.W.L.L.S.A.[am]}|PEPTIDE2{[CCCCCCCCCCCCCCCC(=O)[*:2]].[gGlu]}$PEPTIDE1,PEPTIDE2,17:R3-2:R2$$$V2.0
SMILES: CCCCCCCCCCCCCCCC(=O)N[C@@H](CCC(=O)NCCCC[C@H](NC(=O)[C@H](CCC(=O)O)NC(=O)[C@H](CC(=O)O)NC(=O)[C@H](CC(C)C)NC(=O)[C@H](Cc1ccc(O)cc1)NC(=O)[C@H](CCCNC(=N)N)NC(=O)[C@H](CO)NC(=O)[C@H](Cc1ccc(O)cc1)NC(=O)[C@H](CC(=O)O)NC(=O)[C@H](CO)NC(=O)[C@@H](NC(=O)[C@H](Cc1ccccc1)NC(=O)[C@@H](NC(=O)CNC(=O)[C@H](CCC(N)=O)NC(=O)C(C)(C)NC(=O)[C@@H](N)Cc1c[nH]cn1)[C@@H](C)O)[C@@H](C)O)C(=O)N[C@@H](CCCNC(=N)N)C(=O)N[C@@H](C)C(=O)N[C@@H](CCCNC(=N)N)C(=O)N[C@@H](CC(=O)O)C(=O)N[C@@H](Cc1ccccc1)C(=O)N[C@H](C(=O)N[C@@H](CCC(=O)O)C(=O)N[C@@H](Cc1c[nH]c2ccccc12)C(=O)N[C@@H](CC(C)C)C(=O)N[C@@H](CC(C)C)C(=O)N[C@@H](CO)C(=O)N[C@@H](C)C(N)=O)[C@@H](C)CC)C(=O)O
B6: H-H-DSer-HGTFTSDYSRYLDE-K(Hexadecanoyl-isoGlu)-RARDFIEWLLSA-NH2 [Compound 11] (peptide)
peptide: HXHGTFTSDYSRYLDEKRARDFIEWLLSA
HELM: PEPTIDE1{H.[dS].H.G.T.F.T.S.D.Y.S.R.Y.L.D.E.K.R.A.R.D.F.I.E.W.L.L.S.A.[am]}|PEPTIDE2{[CCCCCCCCCCCCCCCC(=O)[*:2]].[gGlu]}$PEPTIDE1,PEPTIDE2,17:R3-2:R2$$$V2.0
SMILES: CCCCCCCCCCCCCCCC(=O)N[C@@H](CCC(=O)NCCCC[C@H](NC(=O)[C@H](CCC(=O)O)NC(=O)[C@H](CC(=O)O)NC(=O)[C@H](CC(C)C)NC(=O)[C@H](Cc1ccc(O)cc1)NC(=O)[C@H](CCCNC(=N)N)NC(=O)[C@H](CO)NC(=O)[C@H](Cc1ccc(O)cc1)NC(=O)[C@H](CC(=O)O)NC(=O)[C@H](CO)NC(=O)[C@@H](NC(=O)[C@H](Cc1ccccc1)NC(=O)[C@@H](NC(=O)CNC(=O)[C@H](Cc1c[nH]cn1)NC(=O)[C@@H](CO)NC(=O)[C@@H](N)Cc1c[nH]cn1)[C@@H](C)O)[C@@H](C)O)C(=O)N[C@@H](CCCNC(=N)N)C(=O)N[C@@H](C)C(=O)N[C@@H](CCCNC(=N)N)C(=O)N[C@@H](CC(=O)O)C(=O)N[C@@H](Cc1ccccc1)C(=O)N[C@H](C(=O)N[C@@H](CCC(=O)O)C(=O)N[C@@H](Cc1c[nH]c2ccccc12)C(=O)N[C@@H](CC(C)C)C(=O)N[C@@H](CC(C)C)C(=O)N[C@@H](CO)C(=O)N[C@@H](C)C(N)=O)[C@@H](C)CC)C(=O)O

Assays:
[1] = biological target: human glucagon-like peptide 1 receptor (GLP-1R) (human, UniProt P43220 24-463); test: cell-based or functional assay
[2] = biological target: human glucagon receptor (Glucagon-R) (human, UniProt P47871 26-477); test: cell-based or functional assay
human glucagon receptor (Glucagon-R), sequence (P47871 26-477): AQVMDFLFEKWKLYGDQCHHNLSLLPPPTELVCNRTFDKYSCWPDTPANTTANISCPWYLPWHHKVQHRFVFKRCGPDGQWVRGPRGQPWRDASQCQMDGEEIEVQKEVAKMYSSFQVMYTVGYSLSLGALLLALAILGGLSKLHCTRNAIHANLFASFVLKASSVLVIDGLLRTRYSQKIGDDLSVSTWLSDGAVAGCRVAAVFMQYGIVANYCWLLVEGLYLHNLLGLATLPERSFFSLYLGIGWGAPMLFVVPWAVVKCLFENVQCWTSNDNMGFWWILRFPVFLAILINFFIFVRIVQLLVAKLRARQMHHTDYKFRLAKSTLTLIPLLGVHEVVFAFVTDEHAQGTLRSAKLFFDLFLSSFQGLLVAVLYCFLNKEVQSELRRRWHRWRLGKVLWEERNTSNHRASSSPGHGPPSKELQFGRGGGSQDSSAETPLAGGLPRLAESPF

Row | Binder | EC50 values for cAMP generation in HEK293 cells expressing GLP-1 receptor [1] [nM] | EC50 values for cAMP generation in HEK293 cells expressing Glucagon receptor [2] [nM]
1 | B1 | 0.47 | 0.06
2 | H-H[dS]QGTFTSDYSRYLDEK([γGlu-Palmitoyl])RARDFIEWLLSA-NH2 [H-H-DSer-QGTFTSDYSRYLDE-K(Hexadecanoyl-isoGlu)-RARDFIEWLLSA-NH2 [Compound 8]] | 0.2 | 0.2
3 | B2 | 0.12 | 0.19
4 | B3 | 0.12 | 0.15
5 | B4 | 0.06 | 0.14
6 | B5 | 0.05 | 0.1
7 | B6 | 0.15 | 0.09
